Experimental data from publication PMC8163841.

Biological target: Ino80 carrying a C-terminal 2xFlag-tag (S. cerevisiae) (UniProt P53115)
Chain of UniProt P53115 (P53115 whole entry): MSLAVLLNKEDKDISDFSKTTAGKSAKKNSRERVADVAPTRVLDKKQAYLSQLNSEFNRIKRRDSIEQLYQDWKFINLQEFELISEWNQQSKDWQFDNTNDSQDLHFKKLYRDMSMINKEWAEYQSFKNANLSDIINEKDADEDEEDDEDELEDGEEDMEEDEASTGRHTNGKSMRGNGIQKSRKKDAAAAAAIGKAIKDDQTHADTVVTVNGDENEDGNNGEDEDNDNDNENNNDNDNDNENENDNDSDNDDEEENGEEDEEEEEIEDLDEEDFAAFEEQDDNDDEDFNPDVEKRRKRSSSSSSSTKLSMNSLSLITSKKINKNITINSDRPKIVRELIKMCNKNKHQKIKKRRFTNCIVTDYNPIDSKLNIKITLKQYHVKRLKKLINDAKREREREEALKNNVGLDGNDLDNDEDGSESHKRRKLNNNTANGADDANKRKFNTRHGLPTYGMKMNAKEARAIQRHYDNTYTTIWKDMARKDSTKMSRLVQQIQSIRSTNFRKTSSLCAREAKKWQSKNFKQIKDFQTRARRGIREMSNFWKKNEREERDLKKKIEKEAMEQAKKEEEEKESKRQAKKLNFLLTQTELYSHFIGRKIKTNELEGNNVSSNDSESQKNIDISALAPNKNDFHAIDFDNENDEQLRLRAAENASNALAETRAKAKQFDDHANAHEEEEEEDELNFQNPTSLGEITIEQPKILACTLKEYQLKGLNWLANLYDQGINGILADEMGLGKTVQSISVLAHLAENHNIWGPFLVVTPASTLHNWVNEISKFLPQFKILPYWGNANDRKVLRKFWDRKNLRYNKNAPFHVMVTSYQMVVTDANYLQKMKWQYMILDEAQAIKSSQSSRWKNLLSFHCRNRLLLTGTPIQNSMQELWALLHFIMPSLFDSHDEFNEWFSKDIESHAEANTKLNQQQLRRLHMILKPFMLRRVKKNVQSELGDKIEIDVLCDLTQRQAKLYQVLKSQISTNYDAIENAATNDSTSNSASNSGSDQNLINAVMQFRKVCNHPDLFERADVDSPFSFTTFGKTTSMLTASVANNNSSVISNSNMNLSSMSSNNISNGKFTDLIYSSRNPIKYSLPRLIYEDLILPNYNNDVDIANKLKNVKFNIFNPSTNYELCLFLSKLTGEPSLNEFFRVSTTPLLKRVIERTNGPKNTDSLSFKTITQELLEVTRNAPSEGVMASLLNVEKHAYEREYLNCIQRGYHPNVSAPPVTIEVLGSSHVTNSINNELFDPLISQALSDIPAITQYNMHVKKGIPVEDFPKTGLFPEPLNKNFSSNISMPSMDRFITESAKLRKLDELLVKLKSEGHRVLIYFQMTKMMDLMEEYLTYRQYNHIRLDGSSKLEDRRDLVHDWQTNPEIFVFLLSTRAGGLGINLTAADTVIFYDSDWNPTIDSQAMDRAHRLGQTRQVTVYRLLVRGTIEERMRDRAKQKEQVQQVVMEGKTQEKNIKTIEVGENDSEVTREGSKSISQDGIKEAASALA

NADH-based ATPase activity of the WT INO80 complex with yGL167c-NCP601 mononucleosomes, with against without Reb1: 2 fold
B1: S. cerevisiae Reb1 with a Streptavidin tag at the C terminus (natural protein)
chain: MPSGHNDKNANQESVEEAVLKYVGVGLDHQNHDPQLHTKDLENKHSKKQNIVESSSDVDVNNNDDSNRNEDNNDDSENISALNANESSSNVDHANSNEQHNAVMDWYLRQTAHNQQDDEDDENNNNTDNGNDSNNHFSQSDIVVDDDDDKNKKDAGVGVDDDHQSMAMAAVAAAYTLSKNNNNNNSIANDSNSRKRQHDNGNNHENSQKKRKNNNDDDDRQIGNVDPELTTLGDADDNDTNNDVIDRDQLVHKAIIDADSITQHPDFQQYLNTAADTDDNEKLKHIKDHLMRTHGLNHQNKNHNDDTDDLSNSTKQYSELQKDSMLDSSLNKSRNYMEVLPKVISQDTQPHQQKSPSHDNEAGSVDNSEISQLLQSAATKASSLVSLSSSSATPSTSRSNNSKAFDKAEDAALERFINEYEAIERLTRQQVCERIWSSDRPKDNFWNNIYKVLPYRSSSSIYKHMRRKYHIFEQRGKWTAEEEQELAKLCAEKEGQWAEIGKTLGRMPEDCRDRWRNYVKCGTNRASNRWSVEEEELLKKVISDMLEEAQQQQSQLHPNLLEEEQHLLQDDQNDHRNNDEDDDDTASAAAAAAAAIQEQQQLLQQKQQDDDDAIAAAAAAASSSLGDNKDEDKPHDSLGIQLDDNSQNSMVPAPSATSTHSKSLSNTIRRHNNKLRKSLMGNGKLDFKDIINWTIVSERMGGTRSRIQCRYKWNKLVKREAIAKIQTVKDDDMLWIFEKLRDLGITEDSQVDWDELAALKPGMKLNGLELKLCYERMKKKVKGYKQKSINEISKELVDYFSSNISMKTEN
